# Reference: patent US12679878B2, “CRF2 receptor agonists and their use in therapy” (SANOFI, priority 2020, dated 2026)
# Starred links: 1 amine or outer side, 2 acyl side, 3 side chain; linkers in the order of their positions; H or OH if unused. Non-standard residues stand in square brackets, D forms with d. Groups on a side chain read outwards from the residue. No end group written: not given here. *: point of attachment. C18 diacid = O=C(O)CCCCCCCCCCCCCCCCC(=O)*; γGlu = O=C(O)[C@H](CCC(=O)[*:2])N[*:1]; AEEA = NCCOCCOCC(=O)O; Aib = CC(C)(N)C(=O)O
# B1: SEQ ID NO: 128 (peptide)
# peptide: IVLSLD[dV]PIKLK([AEEA-AEEA-γGlu-C18 diacid])QILLKQARQK[Aib]QREQAEKNKRILERV-NH2
# modifications: N-terminus assumed
# SMILES: CC[C@H](C)[C@H](N)C(=O)N[C@H](C(=O)N[C@@H](CC(C)C)C(=O)N[C@@H](CO)C(=O)N[C@@H](CC(C)C)C(=O)N[C@@H](CC(=O)O)C(=O)N[C@@H](C(=O)N1CCC[C@H]1C(=O)N[C@H](C(=O)N[C@@H](CCCCN)C(=O)N[C@@H](CC(C)C)C(=O)N[C@@H](CCCCNC(=O)COCCOCCNC(=O)COCCOCCNC(=O)CC[C@H](NC(=O)CCCCCCCCCCCCCCCCC(=O)O)C(=O)O)C(=O)N[C@@H](CCC(N)=O)C(=O)N[C@H](C(=O)N[C@@H](CC(C)C)C(=O)N[C@@H](CC(C)C)C(=O)N[C@@H](CCCCN)C(=O)N[C@@H](CCC(N)=O)C(=O)N[C@@H](C)C(=O)N[C@@H](CCCNC(=N)N)C(=O)N[C@@H](CCC(N)=O)C(=O)N[C@@H](CCCCN)C(=O)NC(C)(C)C(=O)N[C@@H](CCC(N)=O)C(=O)N[C@@H](CCCNC(=N)N)C(=O)N[C@@H](CCC(=O)O)C(=O)N[C@@H](CCC(N)=O)C(=O)N[C@@H](C)C(=O)N[C@@H](CCC(=O)O)C(=O)N[C@@H](CCCCN)C(=O)N[C@@H](CC(N)=O)C(=O)N[C@@H](CCCCN)C(=O)N[C@@H](CCCNC(=N)N)C(=O)N[C@H](C(=O)N[C@@H](CC(C)C)C(=O)N[C@@H](CCC(=O)O)C(=O)N[C@@H](CCCNC(=N)N)C(=O)N[C@H](C(N)=O)C(C)C)[C@@H](C)CC)[C@@H](C)CC)[C@@H](C)CC)C(C)C)C(C)C
# B2: SEQ ID NO: 131 (peptide)
# peptide: IVLSLD[dV]PIKLK([AEEA-AEEA-γGlu-C18 diacid])QILLEQERQK[Aib]QRQQAEKNKQILAQV-NH2
# modifications: N-terminus assumed
# SMILES: CC[C@H](C)[C@H](N)C(=O)N[C@H](C(=O)N[C@@H](CC(C)C)C(=O)N[C@@H](CO)C(=O)N[C@@H](CC(C)C)C(=O)N[C@@H](CC(=O)O)C(=O)N[C@@H](C(=O)N1CCC[C@H]1C(=O)N[C@H](C(=O)N[C@@H](CCCCN)C(=O)N[C@@H](CC(C)C)C(=O)N[C@@H](CCCCNC(=O)COCCOCCNC(=O)COCCOCCNC(=O)CC[C@H](NC(=O)CCCCCCCCCCCCCCCCC(=O)O)C(=O)O)C(=O)N[C@@H](CCC(N)=O)C(=O)N[C@H](C(=O)N[C@@H](CC(C)C)C(=O)N[C@@H](CC(C)C)C(=O)N[C@@H](CCC(=O)O)C(=O)N[C@@H](CCC(N)=O)C(=O)N[C@@H](CCC(=O)O)C(=O)N[C@@H](CCCNC(=N)N)C(=O)N[C@@H](CCC(N)=O)C(=O)N[C@@H](CCCCN)C(=O)NC(C)(C)C(=O)N[C@@H](CCC(N)=O)C(=O)N[C@@H](CCCNC(=N)N)C(=O)N[C@@H](CCC(N)=O)C(=O)N[C@@H](CCC(N)=O)C(=O)N[C@@H](C)C(=O)N[C@@H](CCC(=O)O)C(=O)N[C@@H](CCCCN)C(=O)N[C@@H](CC(N)=O)C(=O)N[C@@H](CCCCN)C(=O)N[C@@H](CCC(N)=O)C(=O)N[C@H](C(=O)N[C@@H](CC(C)C)C(=O)N[C@@H](C)C(=O)N[C@@H](CCC(N)=O)C(=O)N[C@H](C(N)=O)C(C)C)[C@@H](C)CC)[C@@H](C)CC)[C@@H](C)CC)C(C)C)C(C)C
# B3: SEQ ID NO: 13 (peptide)
# peptide: FTLSLDVPTKIK([AEEA-AEEA-γGlu-C18 diacid])QILFKQQKQKKERQQAEKNKQLLEQI-NH2
# modifications: N-terminus assumed
# SMILES: CC[C@H](C)[C@H](NC(=O)[C@H](CCC(N)=O)NC(=O)[C@H](CCC(=O)O)NC(=O)[C@H](CC(C)C)NC(=O)[C@H](CC(C)C)NC(=O)[C@H](CCC(N)=O)NC(=O)[C@H](CCCCN)NC(=O)[C@H](CC(N)=O)NC(=O)[C@H](CCCCN)NC(=O)[C@H](CCC(=O)O)NC(=O)[C@H](C)NC(=O)[C@H](CCC(N)=O)NC(=O)[C@H](CCC(N)=O)NC(=O)[C@H](CCCNC(=N)N)NC(=O)[C@H](CCC(=O)O)NC(=O)[C@H](CCCCN)NC(=O)[C@H](CCCCN)NC(=O)[C@H](CCC(N)=O)NC(=O)[C@H](CCCCN)NC(=O)[C@H](CCC(N)=O)NC(=O)[C@H](CCC(N)=O)NC(=O)[C@H](CCCCN)NC(=O)[C@H](Cc1ccccc1)NC(=O)[C@H](CC(C)C)NC(=O)[C@@H](NC(=O)[C@H](CCC(N)=O)NC(=O)[C@H](CCCCNC(=O)COCCOCCNC(=O)COCCOCCNC(=O)CC[C@H](NC(=O)CCCCCCCCCCCCCCCCC(=O)O)C(=O)O)NC(=O)[C@@H](NC(=O)[C@H](CCCCN)NC(=O)[C@@H](NC(=O)[C@@H]1CCCN1C(=O)[C@@H](NC(=O)[C@H](CC(=O)O)NC(=O)[C@H](CC(C)C)NC(=O)[C@H](CO)NC(=O)[C@H](CC(C)C)NC(=O)[C@@H](NC(=O)[C@@H](N)Cc1ccccc1)[C@@H](C)O)C(C)C)[C@@H](C)O)[C@@H](C)CC)[C@@H](C)CC)C(N)=O
# B4: SEQ ID NO: 130 (peptide)
# peptide: IVLSLD[dV]PIKLK([AEEA-AEEA-γGlu-C18 diacid])QILLKQERQK[Aib]QREQAEKNKQILAQV-NH2
# modifications: N-terminus assumed
# SMILES: CC[C@H](C)[C@H](N)C(=O)N[C@H](C(=O)N[C@@H](CC(C)C)C(=O)N[C@@H](CO)C(=O)N[C@@H](CC(C)C)C(=O)N[C@@H](CC(=O)O)C(=O)N[C@@H](C(=O)N1CCC[C@H]1C(=O)N[C@H](C(=O)N[C@@H](CCCCN)C(=O)N[C@@H](CC(C)C)C(=O)N[C@@H](CCCCNC(=O)COCCOCCNC(=O)COCCOCCNC(=O)CC[C@H](NC(=O)CCCCCCCCCCCCCCCCC(=O)O)C(=O)O)C(=O)N[C@@H](CCC(N)=O)C(=O)N[C@H](C(=O)N[C@@H](CC(C)C)C(=O)N[C@@H](CC(C)C)C(=O)N[C@@H](CCCCN)C(=O)N[C@@H](CCC(N)=O)C(=O)N[C@@H](CCC(=O)O)C(=O)N[C@@H](CCCNC(=N)N)C(=O)N[C@@H](CCC(N)=O)C(=O)N[C@@H](CCCCN)C(=O)NC(C)(C)C(=O)N[C@@H](CCC(N)=O)C(=O)N[C@@H](CCCNC(=N)N)C(=O)N[C@@H](CCC(=O)O)C(=O)N[C@@H](CCC(N)=O)C(=O)N[C@@H](C)C(=O)N[C@@H](CCC(=O)O)C(=O)N[C@@H](CCCCN)C(=O)N[C@@H](CC(N)=O)C(=O)N[C@@H](CCCCN)C(=O)N[C@@H](CCC(N)=O)C(=O)N[C@H](C(=O)N[C@@H](CC(C)C)C(=O)N[C@@H](C)C(=O)N[C@@H](CCC(N)=O)C(=O)N[C@H](C(N)=O)C(C)C)[C@@H](C)CC)[C@@H](C)CC)[C@@H](C)CC)C(C)C)C(C)C
# B5: SEQ ID NO: 132 (peptide)
# peptide: IVLSLD[dV]PIKLK([AEEA-AEEA-γGlu-C18 diacid])QILLEQERQK[Aib]QREQAEKNKQILERV-NH2
# modifications: N-terminus assumed
# SMILES: CC[C@H](C)[C@H](N)C(=O)N[C@H](C(=O)N[C@@H](CC(C)C)C(=O)N[C@@H](CO)C(=O)N[C@@H](CC(C)C)C(=O)N[C@@H](CC(=O)O)C(=O)N[C@@H](C(=O)N1CCC[C@H]1C(=O)N[C@H](C(=O)N[C@@H](CCCCN)C(=O)N[C@@H](CC(C)C)C(=O)N[C@@H](CCCCNC(=O)COCCOCCNC(=O)COCCOCCNC(=O)CC[C@H](NC(=O)CCCCCCCCCCCCCCCCC(=O)O)C(=O)O)C(=O)N[C@@H](CCC(N)=O)C(=O)N[C@H](C(=O)N[C@@H](CC(C)C)C(=O)N[C@@H](CC(C)C)C(=O)N[C@@H](CCC(=O)O)C(=O)N[C@@H](CCC(N)=O)C(=O)N[C@@H](CCC(=O)O)C(=O)N[C@@H](CCCNC(=N)N)C(=O)N[C@@H](CCC(N)=O)C(=O)N[C@@H](CCCCN)C(=O)NC(C)(C)C(=O)N[C@@H](CCC(N)=O)C(=O)N[C@@H](CCCNC(=N)N)C(=O)N[C@@H](CCC(=O)O)C(=O)N[C@@H](CCC(N)=O)C(=O)N[C@@H](C)C(=O)N[C@@H](CCC(=O)O)C(=O)N[C@@H](CCCCN)C(=O)N[C@@H](CC(N)=O)C(=O)N[C@@H](CCCCN)C(=O)N[C@@H](CCC(N)=O)C(=O)N[C@H](C(=O)N[C@@H](CC(C)C)C(=O)N[C@@H](CCC(=O)O)C(=O)N[C@@H](CCCNC(=N)N)C(=O)N[C@H](C(N)=O)C(C)C)[C@@H](C)CC)[C@@H](C)CC)[C@@H](C)CC)C(C)C)C(C)C
# B6: SEQ ID NO: 129 (peptide)
# peptide: IVLSLD[dV]PIKLK([AEEA-AEEA-γGlu-C18 diacid])QILLEQERQK[Aib]QREQAEKNKQILAQV-NH2
# modifications: N-terminus assumed
# SMILES: CC[C@H](C)[C@H](N)C(=O)N[C@H](C(=O)N[C@@H](CC(C)C)C(=O)N[C@@H](CO)C(=O)N[C@@H](CC(C)C)C(=O)N[C@@H](CC(=O)O)C(=O)N[C@@H](C(=O)N1CCC[C@H]1C(=O)N[C@H](C(=O)N[C@@H](CCCCN)C(=O)N[C@@H](CC(C)C)C(=O)N[C@@H](CCCCNC(=O)COCCOCCNC(=O)COCCOCCNC(=O)CC[C@H](NC(=O)CCCCCCCCCCCCCCCCC(=O)O)C(=O)O)C(=O)N[C@@H](CCC(N)=O)C(=O)N[C@H](C(=O)N[C@@H](CC(C)C)C(=O)N[C@@H](CC(C)C)C(=O)N[C@@H](CCC(=O)O)C(=O)N[C@@H](CCC(N)=O)C(=O)N[C@@H](CCC(=O)O)C(=O)N[C@@H](CCCNC(=N)N)C(=O)N[C@@H](CCC(N)=O)C(=O)N[C@@H](CCCCN)C(=O)NC(C)(C)C(=O)N[C@@H](CCC(N)=O)C(=O)N[C@@H](CCCNC(=N)N)C(=O)N[C@@H](CCC(=O)O)C(=O)N[C@@H](CCC(N)=O)C(=O)N[C@@H](C)C(=O)N[C@@H](CCC(=O)O)C(=O)N[C@@H](CCCCN)C(=O)N[C@@H](CC(N)=O)C(=O)N[C@@H](CCCCN)C(=O)N[C@@H](CCC(N)=O)C(=O)N[C@H](C(=O)N[C@@H](CC(C)C)C(=O)N[C@@H](C)C(=O)N[C@@H](CCC(N)=O)C(=O)N[C@H](C(N)=O)C(C)C)[C@@H](C)CC)[C@@H](C)CC)[C@@H](C)CC)C(C)C)C(C)C
# Target: human corticotropin-releasing factor 2α (CRF2 α receptor) (human), Q13324
# Sequence (Q13324 20-411): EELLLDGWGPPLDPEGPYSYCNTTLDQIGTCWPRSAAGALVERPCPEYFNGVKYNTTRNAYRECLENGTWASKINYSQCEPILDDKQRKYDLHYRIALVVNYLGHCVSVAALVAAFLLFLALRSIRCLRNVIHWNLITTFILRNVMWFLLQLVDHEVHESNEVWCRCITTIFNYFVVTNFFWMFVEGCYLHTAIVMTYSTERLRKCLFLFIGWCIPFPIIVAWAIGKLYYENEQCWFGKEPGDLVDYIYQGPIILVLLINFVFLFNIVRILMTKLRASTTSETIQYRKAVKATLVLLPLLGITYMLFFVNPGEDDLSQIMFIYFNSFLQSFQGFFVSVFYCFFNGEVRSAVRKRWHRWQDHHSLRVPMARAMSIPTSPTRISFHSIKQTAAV
# Experiment: cell-based or functional assay
"EC50 [nM], 0% HSA [nM]","EC50 [nM], 0.1% HSA [nM]",Binder
0.64,20.1,B1
0.11,2.44,B2
0.98,64.1,B3
0.05,2.11,B4
0.38,8.76,B5
0.15,3.02,B6
